# From patent US9957295B2, “Peptides inhibiting cold-inducible RNA binding protein activity” (The Feinstein Institute for Medical Research, priority 2013, dated 2018)
# B1: rmCIRP: recombinant murine (rat sequence) His-tagged CIRP expressed in E. coli (protein)
# chain: MASDEGKLFVGGLSFDTNEQALEQVFSKYGQISEVVVVKDRETQRSRGFGFVTFENIDDAKDAMMAMNGKSVDGRQIRVDQAGKSSDNRSRGYRGGSAGGRGFFRGGRSRGRGFSRGGGDRGYGGGRFESRSGGYGGSRDYYASRSQGGSYGYRSSGGSYRDSYDSYATHNEHHHHHH
# Experiments:
# [1] = test system: wild-type and TLR4 knockout mice; test: rmCIRP injection into wild-type and Tlr4−/− mice; assay type: in vivo, mouse; settings: 1 or 5 mg/kg BW, after 4 h
# Description: Tlr4^−/− mice were incubated with 1.5 μg/ml rmCIRP for 4 h. TNF-α levels in conditioned medium were assayed by ELISA. Data are mean±s.e.m. from three independent experiments. *P<0.05 vs. WT. In comparing the difference among wild-type and knockout mice targeting each receptor in response to rmCIRP, only TLR4-deficient macrophages lost the response for TNF-α induction, while RAGE- and TLR2-deficient macrophages maintained similar responses to wild-type macrophages (FIG. 13A). To confirm the requirement of TLR4 in mediating CIRP activity, wild-type and TLR4 knockout mice were injected with rmCIRP (1 or 5 mg/kg BW) or normal saline (vehicle). After 4 h, serum samples were collected and assayed for TNF-α and IL-6 by ELISA and HMGB1 by Western blotting as well as serum AST and ALT. Data are mean±s.e.m., n=6-9/group, *P<0.05 vs. WT no rmCIRP; #P<0.05 vs. WT with rmCIRP at 5 mg/kg. […] In contrast, these deleterious effects of rmCIRP on the wild-type mice were diminished in Tlr4^−/− mice.
# RAW 264.7 cells = test: Cytokine release from RAW 264.7 cells stimulated with recombinant CIRP; assay type: cell-based, murine; settings: for TNF-α release from RAW 264.7 cells (in words): 100 ng/ml, 4 h, or indicated concentrations and times
# Description: Murine macrophage-like RAW 264.7 cells were obtained from ATCC (American Type Culture Collection, Manassas, Va.), and were grown in Dulbecco's Modified Eagle's Medium (DMEM, Life Technologies, Grand Island, N.Y.) containing 10% (vol/vol) FBS (heat-inactivated at 56° C. for 30 min), 100 U/ml penicillin, 100 μg/ml streptomycin and 2 mM glutamine. Cells were re-suspended in medium and incubated in 6 or 48-well tissue-culture plates overnight in a humidified incubator (37° C., 5% CO2). In the experiments, cell monolayers were stimulated with or without recombinant CIRP at various indicated concentrations and for various indicated times. The cell-free supernatants were assayed for TNF-α by ELISA or for HMGB1 by western blot analysis.
# As an index of the inflammatory cytokine cascade and the acute inflammatory response, supernatants from cells incubated with recombinant CIRP were measured for TNF-α and IL-6 levels in serum, tissue homogenates, and culture medium grown with macrophages using a commercially available enzyme-linked immunosorbent assay (ELISA) kits (BioSource International, Camarillo, Calif.) according to the manufacturer's instruction. To quantify TNF-α and IL-6 protein levels in serum and tissue, serum samples were harvested 4 h after hemorrhage, or 4 h after treatment with recombinant CIRP from animals by cardiac puncture at the time that the rats were sacrificed, and collected tissue samples, and carried out by the same method as above. HMGB1 levels were determined by Western blotting.
# To address whether the extracellular CIRP could function as an inflammatory mediator, recombinant murine CIRP (rmCIRP) was expressed and purified using a bacterial expression system with more than 97% purity and confirmation by Western blotting (FIGS. 16A and B). […] J. Immunol. 174, 3306-3316 (2005); Henderson, B., et al. The extracellular signaling actions of molecular chaperones are not due to microbial contaminants. Cell Stress Chaperones 15, 123-141 (2010)). […]
# In parallel experiments, cytokines in the supernatant of cultured RAW cells incubated with rCIRP were measured. […]
molecule,measurement,setting,value
B1,deleterious effects in Tlr4−/− mice,[1],diminished
same,serum cytokines and organ injury markers in wild-type mice,[1],"increase of serum proinflammatory cytokines (TNF-α, IL-6, and HMGB1) and organ injury markers (AST and ALT) in a dose-dependent manner"
same,TNF-α release from RAW 264.7 cells (in words),RAW 264.7 cells,increased TNF-α release in a dose- and time-dependent manner
same,TNF-α release from RAW 264.7 cells (in words),RAW 264.7 cells; listed as rCIRP,significantly increased TNF-α release
same,increase of HMGB1 release from cultured RAW cells,"RAW 264.7 cells; 500 ng/ml, 20 h incubation, Western blot",about 6 fold
